Target: MBP-DoMYB75 (Dendrobium officinale, UniProt A0A2I0X1N0 1-290)
Assay: EMSA; competed by unlabeled probe; LightShift Chemiluminescent EMSA Kit (Thermo Fisher) per manufacturer; buffer, salt, pH and temperature not stated
Conditions: protein: recombinant; tags: MBP; label: biotin; blunt

Sequence of MBP-DoMYB75 (A0A2I0X1N0 entry or part of it): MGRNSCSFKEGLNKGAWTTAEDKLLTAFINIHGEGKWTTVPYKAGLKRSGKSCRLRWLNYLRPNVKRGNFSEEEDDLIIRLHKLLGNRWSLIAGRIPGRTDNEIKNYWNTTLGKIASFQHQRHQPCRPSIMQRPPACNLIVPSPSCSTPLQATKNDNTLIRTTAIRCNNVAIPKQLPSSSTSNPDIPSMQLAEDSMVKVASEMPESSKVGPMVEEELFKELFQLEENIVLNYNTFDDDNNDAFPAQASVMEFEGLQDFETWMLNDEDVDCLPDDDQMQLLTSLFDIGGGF

B1: ProCSLA12 probe (dsDNA)
DNA 1: CCCTAAAGGTTGGAGTTGGTCACTCAACCTAACCTTAAATAATGATTCATGTTGTATTC
DNA 2: GAATACAACATGAATCATTATTTAAGGTTAGGTTGAGTGACCAACTCCAACCTTTAGGG
binding result: binds

B2: ProCSLA3 probe (dsDNA)
DNA 1: TCACATTTATCACGTTTGAGTTCGATACCAACTTTTTTTTTTTTTTTTTGAGC
DNA 2: GCTCAAAAAAAAAAAAAAAAAGTTGGTATCGAACTCAAACGTGATAAATGTGA
binding result: binds

B3: ProCSLA9 probe (dsDNA)
DNA 1: TAAGAAACTTTGATAACTATTAGATGACCAAATTAATTCAATCATACCGTAAATAATTC
DNA 2: GAATTATTTACGGTATGATTGAATTAATTTGGTCATCTAATAGTTATCAAAGTTTCTTA
binding result: binds

— publication PMC12903456, “DoMYB75 coordinately regulates polysaccharide and anthocyanin biosynthesis in Dendrobium officinale”
